Source: PMC11573672, “Analysis of the structure and interactions of the SARS-CoV-2 ORF7b accessory protein” (Proceedings of the National Academy of Sciences of the …, 2024)

Target: T1, SARS-CoV-2 ORF7b accessory protein, full length, with C-terminal SA linker and Strep-tag II (SARS-CoV-2, UniProt P0DTD8 1-43)
T1 construct: ORF7b of SARS-CoV-2, 43 residues, full length; NMR samples are isotope labelled on chosen amino acids (Leu, Phe and others); Forms heterogeneous multimers; no defined number of copies; also called ORF7b-ST; ORF7b^L:F; not shown: Strep-tag II, C-terminal, kept
T1 chain: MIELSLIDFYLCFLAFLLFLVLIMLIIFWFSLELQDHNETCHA
Test: solid-state NMR (2D hChH reverse-MIRROR, intermolecular polarization transfer)
Conditions: both partners purified

B1: E-cadherin transmembrane domain (E641-R673), purified, Leu-labelled, for solid-state NMR (domain or fragment, human, UniProt P12830-2 641-673, looked up)
chain: EAGLQIPAILGILGGILALLILILLLLLFLRRR
notes: also called E-cadTM; E-cadTM^L; source: wheat-germ cell-free synthesis, purified
  binding result: binds
